The values that follow come from patent US20140256789.

The target in series [1] is p53 (wild-type, endogenous) (Homo sapiens) (UniProt P04637). Nature of the series: cell_activity. The settings on record: fold decrease in luciferase on p53 siRNA knockdown in HCT116.
Series [2] concerns p53 (wild-type, transfected). Nature of the series: cell_activity. The settings on record: luciferase reporter in H1299 with wtp53, fold above pGL3-basic. A general note: Reporter assays use an easily measured gene product as a stand-in for the process of interest.

p53 (wild-type, endogenous) (Homo sapiens), sequence (P04637 whole entry): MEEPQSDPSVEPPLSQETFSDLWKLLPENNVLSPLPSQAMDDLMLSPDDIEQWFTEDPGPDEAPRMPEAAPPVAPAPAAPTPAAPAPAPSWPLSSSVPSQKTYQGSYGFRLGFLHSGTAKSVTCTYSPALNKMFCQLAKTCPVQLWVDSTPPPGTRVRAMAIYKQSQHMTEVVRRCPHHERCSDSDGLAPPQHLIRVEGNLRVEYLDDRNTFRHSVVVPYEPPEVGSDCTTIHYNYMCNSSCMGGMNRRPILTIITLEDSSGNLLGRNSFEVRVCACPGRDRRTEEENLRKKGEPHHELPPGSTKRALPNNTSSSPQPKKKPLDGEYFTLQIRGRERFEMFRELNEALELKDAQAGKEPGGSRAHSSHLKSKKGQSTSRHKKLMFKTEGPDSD

Regarding “EST-Prom-luc (about 2 kb miR-34a promoter region with p53BS)”, the activity in series [1] is greater than 3 fold; in series [2] it was 20 fold.
